experiment: soluble on expression in E. coli; label from the status in PepcDB or PDB records

Soluble on expression in E. coli, not soluble:
MGSDKIHHHHHHMNILFINSIGRNKFGGGEKWMVNAAKGLTDRGHNVVLASKRNSRLLDYAAGSGVRTEVMEIRGDFSPLATLKIAAWMKRHQTDILICNLNKDVRVAGLAARLVGRPVVLARHGMLLCSKKWKHKLSLTRLTDGIVTNSRTIREAYAGYGWFSENFVKVIYNGLTIPAEVTAFDFASRYPGKKIIYSAGRLSKQKGFEYLIDAAAMLKRKRDDLLFAISGEGKLEIELKNRVAALGLKGSFVFLGFTPDIYPFLKGCDLFVLASLFEGMPNVVMEAMAMQKPVIATDVNGARELMGASPESLVCDTGLIIPPKNPAAIAEAIEQIIDNPALLEAYGKAGHQRVETHFTVPIMIDNLEKHLQSKLAEKAGRC, MGSDKIHHHHHHMNILLVYKEDYPWDVRVEKIALSLISRGHDVTIVARNRQCSKTTETVNGIEIVRLPALFKPDGLLNKLLNLPVWFNPFWIWTLRSALRGKPGALIIVRDLPLVKTALLVARGARAKIMLDMAEVYPYMYESGRQFSKGTNFESMIKSPALAARYEAKVLPKIDHTLVMIEESRDRLLQMGLSPQRVSIVSNTPPLDKFSGNTHQHQGRKLRLVYVGFLTKLRGLDLLIEAAYEYVKLGNEPSSLKIDIVGKGAEREHLIALVRDLKLEESVTIHGWLDHQRVDELMAQANVGALTYRVCPHWNHTIPNKIFDYMLAGLPVLATEVTPINRIINETKSGLVCRDLDIRDIAEKLQTLRCPELRSTLGNNGVNAVRAKYNWANDEQRLHAAVNSIAP, MGSDKIHHHHHHMNILVTGANGFVGQTLCPALERAGLRAVRAVRISTRYEEISVGEVDGETSWSRVFDEGIDGVVHLAAKVPLAEKEKEAADSYHRVNTLGTVRLARECAARGIRRFVFISTVKVLGEECDKPFQADDSAVPSDAYAISKWEAEQSLRQISAETGMEVVILRPPLVYGPGVGGNFLRLLQMVDRRIPLPLGAIHNRRSLIYLGNLVDIIRLCLTHPDAASKTFMVSDGEDVSTPGLIRRIGSVLGHGSFLLPVPAAWMRRVGDLLGKRSAIDRLTGSLSVDSMPVQKELGWLPPYGMQAGLALTVQWYRQHKPETKS, MGSDKIHHHHHHMNKELFCIENLRVAYPQRSGEELQWAIDDVSFTLQPGERMGLVGESGCGKSTLGRAAMRLLPPSSLVEGRVTFQGKSVFDLTPNELRKFRGEAVALIFQDPMTRLDPLMTIGNHCIETLQAHAPELSAKEAKEKALATLEKVKIPASRWGQYPHEFSGGMRQRVAIALALLLNPKLIVADEPTTSLDVTVSAQILQELTRLCSEENMALLLISHDLAMVAEYCSRIGVMYNGKMVEMGTTESVFKNPQHEYTRSLLKAALHIQAVDEGSSEASQSPIPSPQSPILRITELKQYYTIEPNFVERLFKAESQTIKAVDGINLELYPGEILGLVGESGCGKSTLSRTILQLIRPTSGKVEFLGQDLTKLSRQEIRACRRQIQMVFQDPHACLNPAMTVGESIADPLLIHHLADAAKAKEQVLWMLQKVGLTPPEVYYQRYPSDLSGGQQQRVAIARALITRPKMLICDEPVSMLDASVQSQVLDLMLQLKEEFELTYLFITHDLWLARFLCDRIAVMHGGKIVELGETKQIFAHPQHPYTQTLLAAAPLLARA, MGSDKIHHHHHHMNKQPLAFRMRPKKIEDVVGQQHLIGKGKIIWRMVQAHRLSSMILYGEPGTGKTSIASAIAGSTELSFRILNAATDGKKELQEVAEEGKMSGSVILLLDEIHRLDKTKQDFLLPHLESGRIVLIGATTENPYLSVTPAIRSRTQIFHVEALSEKDIKTAINRALSDKENGLGNYNIKLDDRAKNHLSTATNGDLRSALNGLELAVLSTKAVGKEKEIHITLPIIEETIQRKSMSGDKNGDAHYDVISAFQKSIRGSDADAGIYYLGRILEAGDLTIAARRLLVIAYEDVGLANPNAAAHAVQAVTAALQLGLPEARIPLANAVIELALSPKSNSAYGAINSAIGDIEKGNTGDVPIHLKNTRNWGKTKNQ, MGSDKIHHHHHHMNKQTEHDTREHLLATGEQLCMQRGFTGMGLSELLKTAQVPKGSFYHYFRSKEAFGVAMLERHYACYHQRLTAHFTSGPGNHRDRLLAWYQETLKQFCQQGAISGCLTVKLSAEVCDLSEDMRSTMDKGAQEIMALLARALEDGRNSHCLHFTGQPLPQAQVLYALWLGANLQAKISRSAAPLENALAHVKTIIATPEQ, MGSDKIHHHHHHMNKQVSTRGTKEKALRLNLDDKKYGTIVEIGAGQEVARNFFVAGAAAGTIAKTMSAYDMTFSDAIYGVQQDGRYVSKARVQAMMEQELDLVIERVGDVRSKSSRYFTYAATVAAKSFNRNNECHAWCGVRVQMYPGAEPSNIVVHVRMFDDNAEAQQQALGVLGVNLIYAAYYYFEDPKKIIDSLTDDLKANRIEIDCIEFQGPYFEDIDSRAKNIHLIRSWKTRAIMFKPDGSVAVPAEMLYKKNVLTIRGSFKPVTKLNVDMIEQGEKAFAELEGVSKDNTIVIAEISLNDSHGKDANMSSTDIIERVKLLNLLGYNVMVSDYTRYFSLRAYFRQYTKLQIGIVVGMINIKQIFDETFYRGLEGGILEGFGKLFPDHTRVFVYPELSETGELKDLTTVNVPNNLRYLYRHLLDNGFITSIESSDINLFSYFSREILKQIAKGSDEWQQALPQPVIDEIISKKLFGYRG, MGSDKIHHHHHHMNKYNQLGSVRYNQLGRIKYNSRGAREVKPLFNRLAQARPVILDQNRRRLAILENADNIILEQEINGIDQVTFTLPWKDEKRKYLVNENLVQLVNSIYIIRRVSVKRSGLSPAEIEVYAEALWYDLQFAEPVEHARWESATPEVIMKDILDGTGWRVGKVTITRERTLELEAGFTNRLKALYELPSLFGGELHFNTDTMTVDFTEPVGRKSGAAIAYSKNLEEVEAIYDTEELVTKLYLYGKNNMSIADANDGVPYLTDFSFTDKVRVRVTKDERFTNPYHLKERGEEALKVLARPRSSYVLRAADLSALSGMSHEEFFLGDEVLVYDKELGINVRTRIVSWKYNVIQPWNTELQLESKQPSLSDLLTGIQEGAEFLYSEDAVERDEMLNLHVFNYLMNSRGDDGFNYWTNDGWELDAENGYSGNASFRATAQPGVKKSLRQTIYPAHRDSYSLSLRVATENLRVGNGRVGVYVKFKYQDGTEEEPIWIPLSEDE, MGSDKIHHHHHHMNLAAFEAFVKVMETGSISVAADQLFITQPAVTKRIHSLEEYFGVKLFESAGRGVQATHAAHSLLPKVKSWLNELRDIHHTLSHEQTQIQGRLKIGTSHHIGLHHLPAPLKHFVQQFPQVTLDVHFVDSEQAHEQVLAGDLELAFLTLPPSGDERLNYITIWNDPLVFVAAPFHPLAQKKNLTLQDLIEYPSLLPAAQTYTAQITLAEFEKQGLKPKITMSNNPLESIRMLVSIGLGWSVLPKTLLNQDMQQLDLNVEMNRQLGMVWHPARTQSRAMQELIKMMQE, MGSDKIHHHHHHMNLKQLRYFVTICEEGQITAAAKRLHIKQPLLSYEIKQLELELETSLFIRGPRGISLTDAGKVLKPYAEQITELSDVAKTKVKYLDKGISGSLSIGSISSSINKLPNQRLLKLKKYYPNIAINVIEGNTYKLLGYLEKGLIDLAILRTPFSSKGVIGYYFDKEPMVAVSAKNNQKDTVGLPDKYLKIDDLSNKPLIIYRRFKELIENTFRNLGFNPLIVVRCDDARTALDGAKVGFGTAIVPKSAILQVENEGEKDIEFREIKEKALETQLAIMWRRDDSFNPLTENFLKMFIGK, MGSDKIHHHHHHMNLKRRRLLDLKSEIFEKIIKIEGNKIDIKPPKKIPQPILSPSREGFDSRNTYNPAVIKEKDRIVMLYRAESKEDKLTGRIGLAISYDGINFFRHPEPIIEPEYKWESVGVEDPRIVKVGKTYYMTYTGYDGKTARLCLATSKNMLTWKKHGPIFEGFEYKKNNIKGWTKSGAILPKKLEKGNFKGNYLMYFGDSNIWMAVSKDLVNWEYMKEPVLSPREGYFDNVLVEPGPPLFETSYGIALIYNSAGRYGDKLKYKVGVVIFDKEYPDKVVARTETPLMVPEYEWELYGHVNNVVFVEGMVEHENKILLYYGGADRHIGLAYWTTDL, MGSDKIHHHHHHMNLLPLFLAVAEEDNFRAAADRLGVTRSAVSQGIRRLEDAFGTTLVTRTTRSVRLTEAGERLREALSQPLSDIGTALDRVAGEDEPRGLLRIAVTSIAEQFLSGPLIASFAQAHPKVAIDVTVTDEEFDIVAAGFDAGVRLGEVIEQDMIAVPLTGDQRELAVAAPTYLAVRGTPAHPRELVHHRCIGWRRAPNVAPYRWEFEENGVPFDVAVEPQITTNDLRFMLRSALCGAGITFATEETFRPFVETGELVPLLQDFLPPFPGFFLYFPQRRNMTPKMRALIEHVRRWR, MGSDKIHHHHHHMNLLTDIFCQKPKRETAMTTETHYDTQAANSCYYQVQGSEVEIFNFAKTHDLPVLIKGPTGCGKTRFVEFMAESLGRELVTVSCHDDLTAADLLGRHLVSSEGTFWQDGPLTRAVRHGGICYLDEIIEARKDTTVVLHSLSDHRRELHLERTGEVIKAHKDFMLVVSYNPGYQNMMKGLKPSTRQRFVAMSFDYPSPEQEAEILVHEAGITTELAHTLVKLGADIRRLSDIDLKAAVSTRLLIYAAKMMSSGCHAQMACLHCIIEPLTDEKQTIEALTQLVNAHF, MGSDKIHHHHHHMNNIFLILGCAKQRWQDLEIICEYVKKTYSLTTMLMVNKAHKEFYSVCDQVIEVDLSDQNFIALASRLLSEQKVSGGLLFADQALLHGTKLFEQLGIVCDNSELGINSYSKLEFRRQEKRYFSHAAKTHYFVPEFSKVNSLQDVHAFAVKYPDGFILKPISEGGSRGVLKLHAQSDFGAAYKQVECYQADGLMCEQLIPTFREFSFDGVGDISFITEKLVATGAHPVEVGQIVPAELTCDSAEKISAHGRLMNLWVGQQLGAFHNEIAYLESQGSTAAIESNRRSGGMGIWNLAEKVFGENLFHRWVDVAMGQTVEHIPLNATGKAMSCMLGSRENLIDDLTMITAQIQEVLAFELGPDIELFSLRWLHTQPHMLPSIPQSNFDFLAEACIYCAHFDLSNQALYERVQRAWDKCLYIGMKEEKCA, MGSDKIHHHHHHMNNINEKSTYHHGDLRETLLVVATEMLQENGIKEVSLRKLASRVGVSRTAPYHHFKDKNALLCGMAEKGFEQLHQINKCGYEDGELSIREHFYRFIHDYIQFAHNNPDLYELMFGRTIWKDKSSTQELRDSAYPCFQFQVAMTQEWQKKGLFNVDDNALRVSQVLWGTVHGIAKLFIDGIYTDNSKIDEICDYAVSMFLSNSKK, MGSDKIHHHHHHMNNKPVVGISGCLTGATVRFDGGHKRMDFVMNSLAPWVAYKPICPEVAIGLPVPRPALRLIQTTCGDIRMRYSHAPHDDVTERMNAFADRFLPTIGELAGFIVCAKSPSCGMERVRLYDEKGNRGRKAGTGLFTAAMMDKYPWLPIEEDGRLHDPVLRENFIARIFALHELNALRAQGLSRHSLLAFHSRYKLQLLAHHQAGYREIGPFVARLHEWDDLDAFFVRYREKLMAILRHPASRKNHTNVLMHIQGYFHRALNSRQRAELREVILGYRAGRLPILAPLTLLKHYLAEHPDDYLRSQNYFEPYPDTLGLRLAIT, MGSDKIHHHHHHMNPLAVELNDLLAQHNPHVLEMLSDLGKNLFFPKGILTQSAEAKEKAHKFNATIGIATENGGPMYLQCIQDKLSAFDPKDIYPYAPPAGKPELRSLWREKMLRENPSQQGKHFSNPIVTNALTHGLSIAGDMFLDKGDHLILPDMLWGNYNLTFGTCCGAVIRKYPTFTATGGYDVDAFKAELKNSAEEKGKAVVLLNFPNNPSGYTPTVAEGDALVAAIKEVAEGGCNIVAITDDAYFGLFYEDSLKESLFGKLANLHPRILAVKLDGATKEEFVWGFRTGFITFADGNSYENTPVMTALEKKAMGIIRARISNCPHPSQTFAIEALRSPNFIKQKQEKFQVLKGRALKTKEVLNSGKYDKAWDYYPFNSGYFMCLKLKTVDAEKLRVHMLDKYGVGAISIGKTDLRIAFSCIDEKDIPELFATIHQAVQDLS

From the DeepSol protein solubility set
